Data taken from US20210380703A1.
Substitutions are numbered along the chain they refer to.

B1: 369_F08 (antibody, V domains shown)
VH: EVQLLESGGGLVQPGGSLRLSCAASGFTFSDYGMHWVRQAPGKGLEWVSGINYNSGYTSYADSVKGRFTISRDNSKNTLYLQMNSLRAEDTAVYYCARGANWHDTALDYWGQGTLVTVSS
VL: DIQMTQSPSSLSASVGDRVTITCRASQSILSYLNWYQQKPGKAPKLLIYAASSLQSGVPSRFSGSGSGTDFTLTISSLQPEDFATYYCQQSYDLPLTFGGGTKVEIK
B2: 369_A03 (antibody, V domains shown)
VH: B1 VH with D31S, H35N, G50N, S55G, S59G, G99S
VL: B1 VL with S31T, A51V, S52T, L54R, Q55H, S91G
B3: 369_B12 (antibody, V domains shown)
VH: B1 VH with S30D, D31S, G33S, H35N, S55G, T58K, G99S, N101T, A106H
VL: B1 VL with S31T, L33V, A51T, S52T, Q55A, L94S
B4: 374_B09 (antibody, V domains shown)
VH: B1 VH with D31S, G33S, H35N, S55G, T58K, G99S, N101T, A106H
VL: B1 VL with L30V, S31R, L47V, S52T, Q55A, D93E
B5: 368_F12 (antibody, V domains shown)
VH: B1 VH with S30D, G33S, H35N, S49A, G50S, T58K, G99S, N101T, A106H
VL: B1 VL with L30V, S31T, L47V, S52T, Q55A
B6: 373_F03 (antibody, V domains shown)
VH: B1 VH with S30D, D31S, G33S, H35N, S49A, G50N, S59G, G99S, N101T, A106H
VL: B1 VL with S31T, L33V, S52T, L54R, Q55H, L94S
B7: 370_A06 (antibody, V domains shown)
VH: B1 VH with D31S, G33S, H35N, S49A, G50S, T58K, G99S, N101T, A106H
VL: B1 VL with L30V, S31T, L47V, S52T, Q55A
B8: 372_D04 (antibody, V domains shown)
VH: B1 VH with D31S, G33S, H35N, S49A, G50N, S59G, G99S, N101T, A106H
VL: B1 VL with S31T, S52T, Q55H
B9: 371_C09 (antibody, V domains shown)
VH: B1 VH with S30D, D31S, G33S, H35N, S55G, T58K, G99S, N101T, A106H
VL: B1 VL with S31T, L33V, L94N
B10: 369_F12 (antibody, V domains shown)
VH: B1 VH with D31S, G33S, H35N, S49A, G50S, T58K, G99S, N101T, A106H
VL: B1 VL with L30I, A51V, S52T, Q55A, D93E, L94N
B11: 374_C02 (antibody, V domains shown)
VH: B1 VH with S30D, D31S, G33S, H35N, S55G, S59G, G99S, N101T, A106H
VL: B1 VL with S52T, L54R, Q55H, L94S
B12: 373_B08 (antibody, V domains shown)
VH: EVQLLESGGGLVQPGGSLRLSCAASGFTFDSYSMNWVRQAPGKGLEWVANINYNSGYKGYADSVKGRFTISRDNSKNTLYLQMNSLRAEDTAVYYCARSATWHDTHLDYWGQGTLVTVSS
VL: B1 VL with S31T, L47V, S52T, Q55A, D93E, L94N
B13: 368_H12 (antibody, V domains shown)
VH: B12 VH with N50S
VL: B1 VL with L30V, S31T, S52T, L54R, Q55A, D93E, L94S
B14: 370_C04 (antibody, V domains shown)
VH: B12 VH with D30S, S33G, N50S, K58T, G59S
VL: B1 VL with D93E, L94N
B15: 374_E09 (antibody, V domains shown)
VH: B12 VH with D30S, S31D, A49S, N50G, S55G
VL: B1 VL with L30V, S31T, L47V, S52T, L54R, Q55A, L94S
B16: 365_C09 (antibody, V domains shown)
VH: B1 VH with H35N, S55G, T58K, G99S, N101T, A106H
VL: B1 VL with L30V, L33V, S52T, L54R, Q55A, L94T
B17: 374_H08 (antibody, V domains shown)
VH: B12 VH with A49S, N50G, S55G, K58T
VL: B1 VL with S52T, Q55H, D93E, L94N
B18: 369_B02 (antibody, V domains shown)
VH: B12 VH with A49S, N50G, S55G, G59S
VL: B1 VL with L47V, S52T, L54R, Q55A, D93N
B19: 367_F02 (antibody, V domains shown)
VH: B12 VH with S55G, K58T, G59S
VL: B1 VL with L30I, L33V, S52T, L54R, Q55H, D93E, L94S
B20: 366_D02 (antibody, V domains shown)
VH: B12 VH with D30S, N50S, S55G, K58T, G59S
VL: B1 VL with L33V, A51T, S52T, Q55A
B21: 374_D12 (antibody, V domains shown)
VH: B12 VH with A49S, N50G, S55G, K58T
VL: B1 VL with L30V, L33V, L47V, S52T, L54R, Q55A
B22: 368_E11 (antibody, V domains shown)
VH: B12 VH with S33G, N35H, S55G, K58T, G59S
VL: B1 VL with L30I, L33V, S52T, L54R, Q55H, D93E
B23: 368_G09 (antibody, V domains shown)
VH: B12 VH with S33G, N35H, S55G, K58T, G59S
VL: B1 VL with L30V, L47V, S52T, L54R, Q55A, L94T
B24: 373_B11 (antibody, V domains shown)
VH: B12 VH with D30S
VL: B1 VL with S52T, L54R, Q55A, L94N

target: human ACVR2A (human) (UniProt P27037); experiment: ELISA
Sequence (P27037 20-135 limits assumed): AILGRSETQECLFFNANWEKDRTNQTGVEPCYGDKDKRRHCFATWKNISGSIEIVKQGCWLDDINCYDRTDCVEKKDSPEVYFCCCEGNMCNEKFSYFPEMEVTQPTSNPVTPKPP

optical density [OD]	Binder
0.503	B1

target: Mouse ACVR2A (mouse) (UniProt P27038); experiment: ELISA
Sequence (P27038 20-135 limits assumed): as the sequence (P27037 20-135 limits assumed) above, with K20R, V73I counted along it

optical density [OD]	Binder
0.561	B2
0.589	B1

target: human Fc (human); experiment: ELISA; negative control

optical density [OD]	Binder
0.4	B3
0.172	B4
0.349	B5
0.179	B6
0.331	B7
0.419	B8
0.308	B9
0.434	B10
0.167	B11
0.17	B12
0.381	B13
0.334	B14
0.162	B15
0.266	B16
0.199	B17
0.456	B18
0.315	B19
0.349	B20
0.235	B21
0.341	B22
0.281	B23
0.178	B24

target: human Fc (human); experiment: ELISA, negative control

optical density [OD]	Binder
0.302	B1

target: Human Fc (human); experiment: ELISA, negative control

optical density [OD]	Binder
0.347	B2
